These results are taken from patent US8802160B2 (Amorphical Ltd., priority 2007, dated 2014).

“Also recorded” adds a separate entry of the source.

A short description of data set [1]: In vitro calcium carbonate precipitation assay testing the stabilization of ACC. The class given is physicochemical. Particulars: for effect on calcium carbonate precipitation (polymorph obtained): CaCl2 + Na2CO3 solution, SEM, Raman. How it is done: Electron microscope images of the precipitates distinctly indicated different polymorph composition of calcium carbonate for the precipitation in the presence/absence of GAP65-enriched fractions (FIG. 7).
FIG. 7 presents precipitation results of calcium carbonate in the presence of GAP65 and in the presence of other protein (trypsin). SEM images in FIG. 7A indicate the distinct polymorph of calcium carbonate in each treatment.
(§1) 100 μl of 1M CaCl2 was added to 10 ml double distilled water (final concentration: 10 mM). 80 μl from the protein extraction solution (1.2 μg/μl) were added (final concentration ˜10 μg/ml). 100 μl of 1M Na2CO3 (final concentration: 10 mM) was added following an intensive shaking. The vial was centrifuged for 5 min at 4000 rpm, the precipitate was smeared over a glass slide and instantly dried with air flow. […] The observations were confirmed by Raman spectroscopy.
The peak at 560 is attributed to the glass substrate. […] Specific expression of GAP21, GAP22 and GAP65 in several target tissues was checked by means of RT-PCR, similarly as described in Example 2. GAP21 and GAP65 expressions were found in both cuticle related tissues. GAP22 expression was found only in the gastrolith epithelial disc. The cDNA sequences of the corresponding genes were obtained and their deduced proteins were found (FIGS. 13-15). […] GAP12, GAP21 and GAP22, on the other hand, show no significant similarity to any known domain.

Data set [2] in a line: Stability of ACC at room temperature by Raman spectroscopy. In kind it is physicochemical. How it is done: The precipitated calcium carbonate was checked over long periods for the amorphous/crystalline state.
as §1

B1: trypsin (protein, UniProt P00760 24-246, looked up)
Serine protease 1: IVGGYTCGANTVPYQVSLNSGYHFCGGSLINSQWVVSAAHCYKSGIQVRLGEDNINVVEGNEQFISASKSIVHPSYNSNTLNNDIMLIKLKSAASLNSRVASISLPTSCASAGTQCLISGWGNTKSSGTSYPDVLKCLKAPILSDSSCKSAYPGQITSNMFCAGYLEGGKDSCQGDSGGPVVCSGKLQGIVSWGSGCAQKNKPGVYTKVCNYVSWIKQTIASN
notes: other (inert) protein used as control in the precipitation assay
For the molecule B1, the “effect on calcium carbonate precipitation (polymorph obtained)” value in data set [1] is “rapid crystallization”.

B2: GAP65: approximately 65 kDa negatively charged glycoprotein from Cherax quadricarinatus gastrolith, SEQ ID NO:1; used as GAP65 enriched fraction (protein, listed as Cherax quadricarinatus)
chain: MIRRVTTPLLALLLAGWVVAQTTDMDPEQYCARRDDEYFRKDFGDPAEFASDYRANCGVYYRCVPAPAGKRSISASQCQSELFFDVQQQICERKSKVTNCEQIDKEHPPQPFWPLREGEESQCKSGEIMCGSGECLPQHRFCDENSDCADGSDENICTPDKDPNRADVCEPRTCLWSQGCFCSVDGTRIPGDLTVDQTPQMITITFTGAINERNFRIFQDVFKDTVKHKGNDCTPKGTFFISHGFSNYSAIQELNRVGHEIAVSSITNNDNPDYWSKLSALDYEAEMDGARLIIEKFANITANEVLGIRVPKQRVGGNRQFRMMVDWGFLYDSSISAPMGRLPLWPYTLMHRMPHKCLGNDQNCPSQNFTVWEMVINEMDRRDDPQFDERLTGCHFVDQCANIQSPEQFRAFLDNNLARHYRTNRAPLGLHFTSGYFETRRDFLREFVKWVRETALSGDYFFVTMQQVINWMEAPTELTAINNFQEWKGKCEVKGQPYCSLPNPCPKKVPRIFPNEEEMFLYTCMECPNTYPWLGDPHGNGFLDIPDF
modifications: glycosylated
notes: used as GAP65 enriched fraction
Regarding B2, in data set [1] (10 mM CaCl2, 10 mM Na2CO3, ~10 μg/ml protein, estimated), the “ACC share of the total CaCO3 precipitated” value is “at least 50%”. Also, in data set [1], the “effect on calcium carbonate precipitation (polymorph obtained)” value is given as “amorphous CaCO3; also recorded: deposition of an amorphous form (ACC)”. Moreover, the “time ACC precipitated with GAP65 remained stable” value in data set [2] is listed as “at least 1 months”.
